*1 amine or outer side, *2 acyl side, *3 side chain or, on linkers, in order; H or OH if unused. Where no end group is shown, it is not given here. Side-chain parts run from the residue outwards. [ ]: non-standard residue; d: D form. The star is where a group is joined. C20 diacid = O=C(O)CCCCCCCCCCCCCCCCCCC(=O)*; C18 diacid = O=C(O)CCCCCCCCCCCCCCCCC(=O)*; γGlu = O=C(O)[C@H](CCC(=O)[*:2])N[*:1]; Desaminohistidyl = O=C(CCc1c[nH]cn1)*; Ac4c = NC1(C(=O)O)CCC1; AEEA = NCCOCCOCC(=O)O; Aib = CC(C)(N)C(=O)O
Columns and labels:
human glucagon receptor [1] = biological target: T1, human glucagon receptor (human, UniProt P47871 26-477); assay: SPA displacement of [125I]-glucagon from human glucagon receptor BHK membranes
T1 construct: whole, on cells; reporter assay on whole cells
Protocol: 1. For the receptor binding assay 50 μl of the assay buffer was added to each well of an assay plate. [0603] 2. Test compounds were serially diluted to give the following concentrations: 8×10EE-7 M, 8×10EE-8 M, 8×10EE-9 M, 8×10EE-10 M, 8×10EE-11 M, 8×10EE-12 M and 8×10EE-13 M. Twenty-five μl were added to appropriate wells in the assay plate. [0604] 3. Cell membrane aliquots were thawed and diluted to their working concentration. Fifty μl were added to each well in the assay plate. [0605] 4. WGA SPA beads were suspended in assay buffer at 20 mg/ml. The suspension was diluted to 10 mg/ml in assay buffer just prior to addition to the assay plate. Fifty μl were added to each well in the assay plate. [0606] 5. […] A 25 μl aliquot was reserved for measuring total counts/well. […] 6. The assay plate was incubated for 2 h at 25° C. [0608] 7. The assay plate was centrifuged for 10 min at 1500 rpm. [0609] 8. The assay plate was read in a Perkin Elmer TopCount NXT instrument.

human GLP-1 receptor [2] = biological target: T2, human GLP-1 receptor (human, UniProt P43220 24-463); assay: cell-based or functional assay
human glucagon receptor [3] = biological target: T1, human glucagon receptor; assay: cell-based or functional assay
human GLP-1 receptor [4] = biological target: T2, human GLP-1 receptor; assay: SPA displacement of [125I]GLP-1(7-36)NH2 from hGLP-1R BHK membranes
Protocol: The GLP-1 receptor binding of each derivatives were determined with competitive binding, displacing [¹²⁵I]GLP-1 bound to GLP-1 receptors expressed in cell membranes associated with wheat germ agglutinin (WGA) scintillation proximity assay (SPA) beads. Each derivative was added in a series of concentrations to isolated membranes comprising the human GLP-1 receptor and displacement of the labelled radioligand was monitored. The receptor binding was reported as the concentration at which half of the labelled ligand is displaced from the receptor, the IC⁵⁰ value.
1. For the receptor binding assay 50 μl of the assay buffer was added to each well of an assay plate. [0588] 2. Test compounds were serially diluted to give the following concentrations: 8×10EE-7 M, 8×10EE-8 M, 8×10EE-9 M, 8×10EE-10 M, 8×10EE-11 M, 8×10EE-12 M and 8×10EE-13 M. Twenty-five μl were added to appropriate wells in the assay plate. [0589] 3. Cell membrane aliquots were thawed and diluted to their working concentration. Fifty μl were added to each well in the assay plate. [0590] 4. WGA SPA beads were suspended in assay buffer at 20 mg/ml. The suspension was diluted to 10 mg/ml in assay buffer just prior to addition to the assay plate. Fifty μl were added to each well in the assay plate. [0591] 5. […] A 25 μl aliquot was reserved for measuring total counts/well. [0592] 6. The assay plate was incubated for 2 h at 30° C. [0593] 7. The assay plate was centrifuged for 10 min. [0594] 8. The assay plate was read in a Perkin Elmer TopCount NXT instrument.

T1 sequence (P47871 26-477): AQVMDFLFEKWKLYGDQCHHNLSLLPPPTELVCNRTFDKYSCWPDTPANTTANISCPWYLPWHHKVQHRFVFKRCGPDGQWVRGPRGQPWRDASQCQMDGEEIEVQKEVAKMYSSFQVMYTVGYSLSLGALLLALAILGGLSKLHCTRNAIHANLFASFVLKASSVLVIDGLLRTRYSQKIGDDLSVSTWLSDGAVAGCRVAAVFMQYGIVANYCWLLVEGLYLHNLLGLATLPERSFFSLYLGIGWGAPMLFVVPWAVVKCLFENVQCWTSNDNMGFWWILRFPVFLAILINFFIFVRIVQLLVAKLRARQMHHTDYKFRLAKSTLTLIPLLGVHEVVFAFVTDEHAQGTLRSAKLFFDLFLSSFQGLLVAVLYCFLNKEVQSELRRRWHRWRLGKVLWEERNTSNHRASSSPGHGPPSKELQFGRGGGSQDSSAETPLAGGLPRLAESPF

Binder | IC50 (human glucagon receptor [1]) | EC50 GLP-1R [pM], CRE luciferase reporter gene assay (human GLP-1 receptor [2]) | EC50 GlucagonR [pM], CRE luciferase reporter gene assay (human glucagon receptor [3]) | IC50 (human GLP-1 receptor [4])
[Desaminohistidyl][Ac4c]HGTFTSDVSKYLEGRAAREFIAWLLK([Gly-Ser-Glu-Gly-Ser-γGlu-γGlu-C18 diacid])T-NH2 | 7.2 nM | 12 pM | 28 pM | 0.3 nM
[Desaminohistidyl][Aib]HGTFTSDVSRYLEEQAAREFIAWLLK([Gly-Ser-Glu-Gly-Ser-γGlu-γGlu-C18 diacid])T-NH2 | 3.8 nM | 6 pM | 60 pM | 0.5 nM
[Desaminohistidyl][Aib]HGTFTSDVSRYLEGQAAREFIAWLLK([Gly-Ser-Glu-Gly-Ser-γGlu-γGlu-C18 diacid])T-NH2 | 8.9 nM | 17 pM | 143 pM | 0.9 nM
[Desaminohistidyl][Aib]HGTFTSDVSKYLEAQAAREFIAWLLK([γGlu-γGlu-Ado-γGlu-γGlu-C18 diacid])T-NH2 | 1.7 nM | 3 pM | 21 pM | 0.6 nM
[Desaminohistidyl][Ac4c]HGTFTSDYSKYLEEQAAREFIAWLLKK([Gly-Ser-Glu-Gly-Ser-γGlu-γGlu-C18 diacid])-NH2 | 16 nM | 5.7 pM | 117 pM | 0.7 nM
[Desaminohistidyl][Ac4c]HGTFTSDVSKYLEEQAAREFIAWLLKK([Gly-Ser-Glu-Gly-Ser-γGlu-γGlu-C18 diacid])-NH2 | 43.9 nM | 2 pM | 163 pM | 0.1 nM
XXHGTFTSDYSKYLEEQAAREFIAWLLKK (Imp (desamino-His) at 7; Acb at 8; Lys35 N-epsilon acylated with 17-carboxyheptadecanoyl-γGlu-γGlu-Ado-γGlu-Ado-γGlu-Ado-γGlu-; C-terminal amide (GLP-1(7-37) numbering)) | 6.9 nM | 3 pM | 78 pM | 1.4 nM
XXHGTFTSDYSRYLEEQAAREFIAWLLRK (Imp (desamino-His) at 7; Acb at 8; Lys35 N-epsilon acylated with 17-carboxyheptadecanoyl-γGlu-γGlu-Ado-γGlu-Ado-γGlu-Ado-γGlu-; C-terminal amide (GLP-1(7-37) numbering)) | 5.6 nM | 3 pM | 71 pM | 0.9 nM
XXHGTFTSDYSKYLERQAAREFIAWLLKK (Imp (desamino-His) at 7; Acb at 8; Lys35 N-epsilon acylated with 17-carboxyheptadecanoyl-γGlu-γGlu-Ado-γGlu-Ado-γGlu-Ado-γGlu-; C-terminal amide (GLP-1(7-37) numbering)) | 11.7 nM | 7 pM | 84 pM | 2.3 nM
XXHGTFTSDYSKYLERRAAREFIAWLLKK (Imp (desamino-His) at 7; Acb at 8; Lys35 N-epsilon acylated with 17-carboxyheptadecanoyl-γGlu-γGlu-Ado-γGlu-Ado-γGlu-Ado-γGlu-; C-terminal amide (GLP-1(7-37) numbering)) | 8.6 nM | 8 pM | 54 pM | 1.8 nM
XXHGTFTSDYSKYLEGRAAREFIAWLLKK (Imp (desamino-His) at 7; Acb at 8; Lys35 N-epsilon acylated with 17-carboxyheptadecanoyl-γGlu-γGlu-Ado-γGlu-Ado-γGlu-Ado-γGlu-; C-terminal amide (GLP-1(7-37) numbering)) | 22.5 nM | 16 pM | 222 pM | 7.3 nM
XXHGTFTSDYSRYLEGRAAREFIAWLLRK (Imp (desamino-His) at 7; Acb at 8; Lys35 N-epsilon acylated with 17-carboxyheptadecanoyl-γGlu-γGlu-Ado-γGlu-Ado-γGlu-Ado-γGlu-; C-terminal amide (GLP-1(7-37) numbering)) | 36.7 nM | 18.5 pM | 226 pM | 6.8 nM
[Desaminohistidyl]AHGTFTSDVSKYLEGRAAREFIAWLLK([Ado-Ado-γGlu-γGlu-γGlu-C18 diacid])T-NH2 | 25.9 nM | 8 pM | 229 pM | 1 nM
[Desaminohistidyl][Aib]HGTFTSDVSKYLEEQAAREFIAWLLK([Ado-Ado-γGlu-C18 diacid])T-NH2 | 20.3 nM | 6 pM | 83 pM | 0.7 nM
[Desaminohistidyl]AHGTFTSDVSRYLEEQAARK([AEEA-AEEA-γGlu-γGlu-γGlu-C18 diacid])FIAWLLR | 126 nM | 8 pM | 1290 pM | 2.2 nM
[Desaminohistidyl][Aib]HGTFTSDVSRYLEEQAARK([AEEA-AEEA-γGlu-γGlu-γGlu-C18 diacid])FIAWLLR | 21.2 nM | 7 pM | 143 pM | 2.9 nM
[Desaminohistidyl][Aib]HGTFTSDVSKYLEEQAAREFIAWLLK([γGlu-γGlu-Ser-Gly-Glu-Ser-Gly-C18 diacid])T (Named as peptide, not peptide amide (C-terminal acid)) | 11.9 nM | 5.5 pM | 84.5 pM | 2.3 nM
[Desaminohistidyl][Aib]HGTFTSDVSKYLEEQAAREFIAWLLK([Gly-Ser-Glu-Gly-Ser-γGlu-γGlu-C20 diacid])T-NH2 | 6 nM | 5 pM | 111 pM | 0.4 nM
[Desaminohistidyl][Aib]HGTFTSDVSKYLEARAAREFIAWLLKGGG (not fully specified (residue 28); printed as Nε34-[(4S)-4-carboxy-4-[[2-[2-[2-[[2-[2-[2-[[(4S)-4-carboxy-4-[[(4S)-4-carboxy-4-(17-carboxyheptadecanoylamino)butanoyl]amino]butanoyl]amino]ethoxy]ethoxy]acetyl]amino]ethoxy]ethoxy]acetyl]amino]butanoyl]-[Imp7,Aib8,His9,Lys18,Ala22,Arg23,Arg26,Leu33,Gly36]-GLP-1-(7-37)-peptide) | 3.7 nM | 2.2 pM | 39.4 pM | 0.3 nM
[Desaminohistidyl][Aib]HGTFTSDVSRYLEGRAAREFIAWLLK([γGlu-γGlu-AEEA-γGlu-γGlu-C18 diacid])GAG | 18.8 nM | 3 pM | 248 pM | 1 nM

— patent publication US20160102129A1 (Novo Nordisk, published 2016)
